Target: large hepatitis B surface protein (hepatitis B virus)
Experiment: cell-based or functional assay

neutralizing monoclonal antibody Ma18/7 was tested. Which inhibition of HBV infection of HepG2-hNTCP cells, secreted HBeAg did it give?
The inhibition of HBV infection of HepG2-hNTCP cells, secreted HBeAg was over 90%.
